Results: PMC4619645

Columns and labels:
[1] = target: invariant surface glycoprotein ISG65 (Trypanosoma brucei brucei (endogenous in bloodstream-form cells, MITat 1.2, Lister 427)); assay: native gel or EMSA; Blue Native PAGE of bloodstream-form cell lysates, followed by western blotting; carried out as described in ref. 57
[2] = target: invariant surface glycoprotein ISG75 (Trypanosoma brucei brucei (endogenous in bloodstream-form cells, MITat 1.2, Lister 427)); assay: as above

invariant surface glycoprotein ISG65 (natural protein)
stoichiometry N [1]: 2

invariant surface glycoprotein ISG75 (natural protein)
stoichiometry N [2]: > 2
